This test has as its target mCherry-Actin (UniProt P60709). The test can be described thus: FRET or BRET. For orientation: Bioluminescence resonance energy transfer reports proximity on the nanometre scale.

From paper PMC3580387 come the findings set out here.

On to “TFP-N-WASP (Teal fluorescent protein fused to human N-WASP) (from UniProt O00401 1-505) (natural protein)”, for which the mean E% (FRET efficiency), Case 1 ROIs amounted to 20.3%; the mean E% (FRET efficiency), Case 2 ROIs stood at 27.9%; the mean E% (FRET efficiency), Case 4 ROIs was 25.2%.
Take “Venus-IQGAP1 (Venus fused to human IQGAP1) (from UniProt P46940 1-1657) (natural protein)”: the mean E% (FRET efficiency), Case 1 ROIs stood at 29.6%; the mean E% (FRET efficiency), Case 2 ROIs was 25.4%; the mean E% (FRET efficiency), Case 3 ROIs is 39.3%.
